In US20250205358A1, “PHOTOACTIVATABLE NANOPARTICLES AND USES THEREOF AS AGENTS FOR IMMUNOTHERAPY COMBINATIONS” (Board of Regents, The University of Texas System, priority 2023, published 2025):

B1: mIFN-γ: mouse Interferon Gamma Protein (Sino Biological) (protein, UniProt P01580 23-155, looked up)
Interferon gamma: HGTVIESLESLNNYFNSSGIDVEEKSLFLDIWRNWQKDGDMKILQSQIISFYLRLFEVLKDNQAISNNISVIESHLITTFFSNSKAKKDAFMSIAKFEVNNPQVQRQAFNELIRVVHQLLPESSLRKRKRSRC

Assays:
PDAC = PDAC patients, standard of care; cited from earlier work
PD-L1 = assay: Fold increase in PD-L1 expression with mIFN-γ (flow cytometry); type: cell-based, murine; details: 40 ng/ml, 24 h
Procedure: Fold increase in PD-L1 expression and binding specificity of iTPALs: Confluent AT84, LLC, MC38, ID8, CT1BA5 and BMFA3 cells were washed in PBS, trypsinized, and collected in their respective media. The cells were counted and diluted to seed 1.5×10^5 cells per well in a 6 well plate (Corning) overnight. The next day, the media was replaced with fresh media containing 40 ng/ml of mIFN-γ and incubated for an additional 24 h. The cells were then trypsinized, dispersed in their respective media and counted using a cell counter (Bio-Rad). Cells were diluted in their respective media to obtain a concentration of 5×10^5 cells/ml. Then, 100 μl of the counted cells were placed in the 1.5 ml microcentrifuge tubes. To calculate the fold increase in PD-L1 expression, 100 μl of 40 µg/ml α-PD-L1 equivalent of α-PD-L1-AF488 were then added to the cells whereas to monitor the binding specificity of iTPALs (17α), 100 μl of 500 nM BPD-PC equivalent of either 100 μl PALs or TPALs (17α) added to the cells and incubated at 37° C. for 30 mins in the dark. The cells were then pelleted by […] for 5 mins at 1000×g, and the supernatants containing free unbound PALs and iTPALs (17α) were discarded. The cells were then resuspended in 300 μl of FACS buffer and transferred into flow cytometry tubes. For each condition, 10,000 cells were analyzed using a BD Fortessa flow cytometry analyzer with a 405 nm laser/710 nm bandpass detector pair for BPD-PC fluorescence and a 488 nm laser/530 nm detector pair for AF488 fluorescence. The data was then analyzed using FlowJo to calculate the median fluorescence of BPD-PC and AF488. The increase in PD-L1 expression after treating the cells with mIFN-γ was calculated as shown in Equation 1 below and the binding specificity of iTPALs (17α) was calculated as shown in Equation 2 below.

| Molecule | Overall survival (PDAC) | Increase in PD-L1 expression (PD-L1; AT84 head and neck cancer cells) | Increase in PD-L1 expression (PD-L1; BMFA3 PDAC cells) | Increase in PD-L1 expression (PD-L1; CT1BA5 PDAC cells) | Increase in PD-L1 expression (PD-L1; ID8 ovarian cancer cells) | Increase in PD-L1 expression (PD-L1; LLC lung cancer cells) | Increase in PD-L1 expression (PD-L1; MC38 colon cancer cells) |
| --- | --- | --- | --- | --- | --- | --- | --- |
| FOLFIRINOX | 11.1 months | – | – | – | – | – | – |
| B1 | – | 1.8 fold | 2.5 fold | 1.5 fold | 2.9 fold | 1.4 fold | 1.8 fold |
